Source: patent CN108948202A (BOAOXIN BIOTECHNOLOGY NANJING CO LTD, dated 2018)

Columns and labels:
[1] = biological target: T1, 重组人PD1带his标签的蛋白 (Sino biological inc., cat#10377-H08H) (human, UniProt Q15116 25-167); test: ELISA, hybridoma supernatant on coated human PD1-his
T1 construct: Detection antigen for serum titres and hybridoma screening; also called 人PD1-his蛋白抗原; PD1-his; not shown: his tag

生物素标记人PD1-Fc蛋白 = biological target: T2, 生物素标记人PD1-Fc蛋白 (human, UniProt Q15116 25-167, limits assumed, biotin-labelled (site not stated)); test: capture ELISA: antibody captured by anti-mouse IgG Fc, 60 nM biotinylated human PD1-Fc
T2 construct: also called PD1Fc biotin; 人PD1抗原; not shown: Fc part
T2 sequence (Q15116 25-167 limits assumed): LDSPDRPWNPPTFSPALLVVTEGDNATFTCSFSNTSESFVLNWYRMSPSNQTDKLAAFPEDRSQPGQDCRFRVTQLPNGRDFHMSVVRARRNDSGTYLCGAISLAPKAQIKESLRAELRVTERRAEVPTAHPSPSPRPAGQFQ

T1 sequence (Q15116 25-167 limits assumed): as above

B1: D2G3 抗人PD1小鼠单克隆抗体 (antibody, V domains shown)
VH: QEQLKQSGPGLVAPSQTLSITCTVSGFSLESYGVDWVRQSPGKGLEWLGVIWGSGSTSYNSGLKSRLSISKDNSKKQVFLEMKSLQTDDTAMYYCAIDGGFASWGQGTLVTVSA
VL: DIVMTQAAPSVPVTPGESVSISCRSSKSLLHSNGNTYLYWFLQRPGQSPQRLIYYMSNLASGVPDRFSGRGSGTDFTLRISRVEAEDVGVYYCMQSLEYPYTFGGGTKLEIK
notes: Tested as a mouse monoclonal antibody from a hybridoma (supernatant or small-scale purified); also called D2G3抗体; 本发明的抗人PD1单克隆抗体
B1: binds [1]; binds (生物素标记人PD1-Fc蛋白).
